The test addresses C5b-8 complex (human, UniProt P01031 752-1676; P01031 19-673; P13671 22-934; P10643 23-843; P07357 31-584; …). Briefly: negative-stain electron microscopy.

B1: C9 (natural protein)
chain: not shown
As for B1, the binding result was “binds”.

The values above are taken from article PMC2185789 (The Journal of Experimental Medicine, 1980).
